Test results: patent US20060121032A1 (published 2006)

target: extracellular region of human V158 FcγRIIIa with C-terminal 6×His-tag and GST-tag (human, UniProt P08637 17-208); test: SPR
Sequence (P08637 17-208 F176V): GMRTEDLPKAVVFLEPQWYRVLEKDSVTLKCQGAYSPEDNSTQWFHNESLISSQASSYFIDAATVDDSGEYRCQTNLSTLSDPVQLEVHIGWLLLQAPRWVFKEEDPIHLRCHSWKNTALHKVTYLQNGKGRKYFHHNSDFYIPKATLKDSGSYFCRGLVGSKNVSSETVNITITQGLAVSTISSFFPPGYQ

Fold WT | Binder
2.62 fold | alemtuzumab S267E (antibody) chain 1: not shown chain 2: not shown
1.41 fold | alemtuzumab R255Y (antibody) chain 1: not shown chain 2: not shown
384 fold | alemtuzumab E272H (antibody) chain 1: not shown chain 2: not shown
7.07 fold | alemtuzumab K246Y (antibody) chain 1: not shown chain 2: not shown
12.8 fold | alemtuzumab S304T (antibody) chain 1: not shown chain 2: not shown
2.56 fold | alemtuzumab E283L (antibody) chain 1: not shown chain 2: not shown
1.41 fold | alemtuzumab E272P (antibody) chain 1: not shown chain 2: not shown

The remaining lines, values behind:

Binder | Fold WT
alemtuzumab E258Y (antibody) chain 1: not shown chain 2: not shown | 1.77 fold
alemtuzumab K246H (antibody) chain 1: not shown chain 2: not shown | 22.4 fold
alemtuzumab E283H (antibody) chain 1: not shown chain 2: not shown | 2.31 fold
alemtuzumab V284E (antibody) chain 1: not shown chain 2: not shown | 1.51 fold
alemtuzumab S324G (antibody) chain 1: not shown chain 2: not shown | 14.2 fold
alemtuzumab H268D (antibody) chain 1: not shown chain 2: not shown | 5.66 fold
alemtuzumab G236S (antibody) chain 1: not shown chain 2: not shown | 6.69 fold
alemtuzumab E258H (antibody) chain 1: not shown chain 2: not shown | 5.5 fold
